# T1: MBP-CsMYB15 (Citrus sinensis Osbeck ('Lane Late' …, UniProt A0A7G7YA61 1-267))
# T1 sequence: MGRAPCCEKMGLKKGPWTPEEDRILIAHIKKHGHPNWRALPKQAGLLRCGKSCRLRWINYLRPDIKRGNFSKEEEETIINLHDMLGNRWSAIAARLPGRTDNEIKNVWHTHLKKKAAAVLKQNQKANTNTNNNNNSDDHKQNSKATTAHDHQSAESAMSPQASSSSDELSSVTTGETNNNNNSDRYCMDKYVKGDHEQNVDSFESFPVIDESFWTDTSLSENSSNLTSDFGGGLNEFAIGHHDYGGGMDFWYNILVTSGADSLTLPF
# B1: proCs4CL2 probe (dsDNA)
# DNA 1: GCAAAAATAACTCACCATCCCCTTTGCTTCCC
# DNA 2: GGGAAGCAAAGGGGATGGTGAGTTATTTTTGC
# B2: proCs4CL2 unlabeled competitor (dsDNA)
# DNA 1: B1 DNA 1
# DNA 2: B1 DNA 2
# Assays:
# [1] = target: T1, MBP-CsMYB15; assay: EMSA; not stated (EMSA as in Shi et al., 2020 with minor modifications); conditions: protein: recombinant; tags: MBP; label: 5' FAM on S18; blunt
# [2] = target: T1, MBP-CsMYB15; assay: competition; dose-dependent competition against FAM probe N1; not stated (EMSA as in Shi et al., 2020 with minor modifications); conditions: protein: recombinant; tags: MBP; blunt
Binder,binding result [1],binding result [2]
B1,binds,–
B2,–,binds
